In patent US20050163775A1, “Combination therapy for B cell disorders” (Genentech, Inc., priority 2003, published 2005):
Bridges are numbered along the chain shown (N, C = ends). Where no end group is shown, it is not given here.

target: T1, human BAFF (residues 82-285) (human, UniProt Q9Y275 82-285); test: phage display selection on BAFF
T1 construct: Coated on plates in the ELISAs; also used biotinylated or free in solution for phage sorting; also called BAFF82-285; BLyS82-285
T1 sequence (Q9Y275 82-285): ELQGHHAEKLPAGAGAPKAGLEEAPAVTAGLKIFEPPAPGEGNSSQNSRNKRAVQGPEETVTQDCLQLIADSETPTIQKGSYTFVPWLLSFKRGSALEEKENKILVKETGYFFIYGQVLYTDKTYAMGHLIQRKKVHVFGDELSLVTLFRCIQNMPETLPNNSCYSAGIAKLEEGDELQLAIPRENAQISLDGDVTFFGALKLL

Row | binding result | Binder
1 | binds | ECFDLLVNRWVDCRLLI [SEQ ID NO 102]
2 | binds | ECFDILVNRWVPCGALT (disulfide 2-13 (inferred)) [SEQ ID NO 133]
3 | binds | ECFDLLVRSWVPCTLLS [SEQ ID NO 91]
4 | binds | ECFDPLVRIWVACDRLA [SEQ ID NO 103]
5 | binds | ECFDLLVRSWVPCSSLG [SEQ ID NO 77]
6 | binds | ECFDPLVGRWVPCTLLH (disulfide 2-13 (inferred)) [SEQ ID NO 104]
7 | binds | ECFDLLVRRWVPCSWLL [SEQ ID NO 86]
8 | binds | ECFDLLVRSWVPCHMLR [SEQ ID NO 70]
9 | binds | ECFDPLVGHWVPCSVLT (disulfide 2-13 (inferred)) [SEQ ID NO 106]
10 | binds | ECFDILVNAWVPCRVIG (disulfide 2-13 (inferred)) [SEQ ID NO 112]
11 | binds | ECFDDLVRHWVPCDLLT [SEQ ID NO 131]
12 | binds | ECFDPLVRDWVPCDLIH (disulfide 2-13 (inferred)) [SEQ ID NO 138]
13 | binds | ECFDSLVNAWVPCHVLT (disulfide 2-13 (inferred)) [SEQ ID NO 142]
14 | binds | ECFDVLVNAWVDCAVLR (disulfide 2-13 (inferred)) [SEQ ID NO 128]
15 | binds | ECFDLLVRRWVPCELLV [SEQ ID NO 79]
16 | binds | ECFDLLVRAWVPCSYLS [SEQ ID NO 89]
17 | binds | ECFDPLVRVWVDCSILD (disulfide 2-13 (inferred)) [SEQ ID NO 100]

Row | binding result | Binder
18 | binds | ECFDDLVRNWVPCALLN [SEQ ID NO 134]
19 | binds | ECFDLLVNSWVPCSVIA (disulfide 2-13 (inferred)) [SEQ ID NO 139]
20 | binds | ECFDLLVRKWVPCQVLG [SEQ ID NO 67]
21 | binds | ECFDLLVRRWVPCGLLR [SEQ ID NO 75]
22 | binds | ECFDLLVRAWVPCHLID [SEQ ID NO 105]
23 | binds | ECFDLLVRAWVRCDMLL [SEQ ID NO 72]
24 | binds | ECFDLLVRKWVPCSTFH (disulfide 2-13 (inferred)) [SEQ ID NO 92]
25 | binds | ECFDRLVNLWVDCALLN (disulfide 2-13 (inferred)) [SEQ ID NO 108]
26 | binds | ECFDPLVNAWVPCAVLH (disulfide 2-13 (inferred)) [SEQ ID NO 135]
27 | binds | ECFDVLVRAWVPCRALT (disulfide 2-13 (inferred)) [SEQ ID NO 132]
28 | binds | ECFDLLVRAWVPCSVLK [SEQ ID NO 94]
29 | binds | ECFDLLVRDWVPCSLLF [SEQ ID NO 90]
30 | binds | ECFDLLVRGWVDCSLLL [SEQ ID NO 96]
31 | binds | ECFDLLVRQWVPCERIR [SEQ ID NO 65]
32 | binds | ECFDPLVRHWVPCRALD [SEQ ID NO 130]
33 | binds | ECFDVLVSAWVDCARLN (disulfide 2-13 (inferred)) [SEQ ID NO 109]
34 | binds | ECFDLLVRGWVPCEKLM [SEQ ID NO 73]

Second part, the binder before the results:

Row | Binder | binding result
35 | ECFDPLVNRWVDCVALH (disulfide 2-13 (inferred)) [SEQ ID NO 107] | binds
36 | ECFDSLVRLWVPCNLLR [SEQ ID NO 110] | binds
37 | ECFDPLVARWVPCHLIN (disulfide 2-13 (inferred)) [SEQ ID NO 99] | binds
38 | ECFDILVDRWVPCAILH (disulfide 2-13 (inferred)) [SEQ ID NO 97] | binds
39 | ECFDLLVRTWVPCQAIL (disulfide 2-13 (inferred)) [SEQ ID NO 71] | binds
40 | ECFDLLVRQWVSCELLS [SEQ ID NO 95] | binds
41 | ECFDALVHRWVPCDLLR [SEQ ID NO 137] | binds
42 | ECFDLLVRSWVPCGTLM [SEQ ID NO 69] | binds
43 | ECFDLLVRQWVPCRALM [SEQ ID NO 88] | binds
44 | ECFDLLVRRWVPCSLVK [SEQ ID NO 87] | binds
45 | ECFDLLVRTWVECSLLN [SEQ ID NO 68] | binds
46 | ECFDSLVNAWVPCSAIR (disulfide 2-13 (inferred)) [SEQ ID NO 101] | binds
47 | ECFDLLVRRWVDCAFLH [SEQ ID NO 76] | binds
48 | ECFDLLVRAWVPCWLRL [SEQ ID NO 74] | binds
49 | ECFDPLVLRWVPCSALH (disulfide 2-13 (inferred)) [SEQ ID NO 136] | binds
50 | ECFDTLVRAWVPCSHLT (disulfide 2-13 (inferred)) [SEQ ID NO 140] | binds
51 | ECFDLLVRAWVPCNELR [SEQ ID NO 84] | binds
52 | ECFDLLVRSWVPCYSLK [SEQ ID NO 80] | binds
53 | ECFDSLVRIWVPCGLID [SEQ ID NO 141] | binds
54 | ECFDLLVRVWVPCSRLY [SEQ ID NO 82] | binds
55 | ECFDLLVRGWVPCSVLQ [SEQ ID NO 93] | binds
56 | ECFDRLVNRWVPCNLIV (disulfide 2-13 (inferred)) [SEQ ID NO 113] | binds
57 | ECFDLLVRQWVPCGALG [SEQ ID NO 83] | binds
58 | ECFDLLVRQWVSCQVFA (disulfide 2-13 (inferred)) [SEQ ID NO 81] | binds
59 | ECFDGLVNAWVDCGLLR [SEQ ID NO 129] | binds
60 | ECFDLLVREWVPCRILQ [SEQ ID NO 85] | binds
61 | ECFDRLVGHWVPCAALI (disulfide 2-13 (inferred)) [SEQ ID NO 98] | binds
62 | ECFDLLVRRWVPCEMLG [SEQ ID NO 66] | binds
